Assay [1] has as its target HLA-A*02:01. The assay can be described thus: IEDB peptide-MHC binding, cellular MHC/competitive/fluorescence; ≥ and ≤ were set here for values at or beyond the usual limits of such assays. Particulars: source organism: Vaccinia virus WR.
In another assay the target is HLA-A*02:02. The description is as above.
The next assay concerns the target HLA-A*02:03. The description is as above.
The target of assay [2] is HLA-A*68:02. The assay is described as above.
The target of assay [3] is HLA-A*02:06. Briefly: IEDB peptide-MHC binding, purified MHC/competitive/radioactivity; ≥ and ≤ were set here for values at or beyond the usual limits of such assays.
The target in assay [4] is HLA-A*02:06. The assay can be described thus: IEDB peptide-MHC binding, cellular MHC/competitive/fluorescence; ≥ and ≤ were set here for values at or beyond the usual limits of such assays. Particulars: source organism: Vaccinia virus WR.
Assay [5] deals with HLA-A*68:02. The assay can be described thus: IEDB peptide-MHC binding, purified MHC/competitive/radioactivity; ≥ and ≤ were set here for values at or beyond the usual limits of such assays. Particulars: source organism: Vaccinia virus WR.
The target in assay [6] is HLA-A*02:01. The description is as above.
Setting [7] is: source organism: Vaccinia virus WR.
Setting [8] is: source organism: Hepacivirus hominis.

A word on the IC50: it is the concentration at which inhibition is half-maximal. On to FVVNGHTCM, for which the IC50 with HLA-A*02:01 [1] was determined as 22.3 µM; in the assay with HLA-A*02:02 (setting [7]), 6.64 µM; with HLA-A*02:03 (setting [7]), 5.9 µM; with HLA-A*68:02 [2] (setting [7]), 7.46 µM; with HLA-A*02:06 [3] (setting [7]), 1.81 µM.

As for GVLPEETNI, the IC50 with HLA-A*02:01 [1] amounted to 17.3 µM; with HLA-A*02:02 (setting [7]) it was 17.3 µM; with HLA-A*02:03 (setting [7]) it was 20.4 µM; with HLA-A*68:02 [2] (setting [7]), 12 µM; with HLA-A*02:06 [3] (setting [7]), 0.573 µM.

Regarding IAGLKIEEI, the IC50 with HLA-A*02:01 [1] worked out at 23.2 µM; in the assay with HLA-A*02:02 (setting [7]), 7.66 µM; in the assay with HLA-A*02:03 (setting [7]), 6.09 µM; with HLA-A*68:02 [2] (setting [7]), 27.5 µM; with HLA-A*02:06 [3] (setting [7]) it was 1.97 µM.

As for IAVSVYGAIT, the half-inhibitory concentration (IC50) with HLA-A*02:02 (setting [7]) was found to be 7.89 µM; in the assay with HLA-A*02:03 (setting [7]), 9.24 µM; with HLA-A*02:06 [4] it was 14.4 µM; with HLA-A*68:02 [5], 4.38 µM.

With IIDLLLPST, the 50% inhibitory concentration (IC50) in the assay with HLA-A*02:01 [1] is 5.65 µM; with HLA-A*02:02 (setting [7]), 15.1 µM; with HLA-A*02:03 (setting [7]), 10.3 µM; in the assay with HLA-A*68:02 [2] (setting [7]), at least 70 µM; with HLA-A*02:06 [3] (setting [7]), 1.12 µM.

With ITLILSNKL, the IC50 with HLA-A*02:01 [1] was found to be 6.79 µM; with HLA-A*02:02 (setting [7]) it was 5.11 µM; in the assay with HLA-A*02:03 (setting [7]), 17.1 µM; in the assay with HLA-A*68:02 [2] (setting [7]) it was 8.73 µM; with HLA-A*02:06 [3] (setting [7]) it was 0.396 µM.

With KTEHCDDFM, the IC50 is 16.1 µM with HLA-A*02:01 [1]; 6.5 µM with HLA-A*02:02 (setting [7]); 18.1 µM with HLA-A*02:03 (setting [7]); at least 70 µM in the assay with HLA-A*68:02 [2] (setting [7]); 2.52 µM in the assay with HLA-A*02:06 [3] (setting [7]).

With KTNTKHCPKI, the IC50 with HLA-A*02:01 [1] came out at 36.5 µM; in the assay with HLA-A*02:02 (setting [7]), 33.8 µM; with HLA-A*02:03 (setting [7]) it was 10.9 µM; with HLA-A*68:02 [2] (setting [7]), 20 µM; in the assay with HLA-A*02:06 [3] (setting [7]), 0.234 µM.

Turning to KTPVIVVPVI, the IC50 with HLA-A*02:01 [1] is 12 µM; with HLA-A*02:02 (setting [7]), 9.09 µM; in the assay with HLA-A*02:03 (setting [7]) it was 6.2 µM; with HLA-A*68:02 [2] (setting [7]), 36.5 µM; in the assay with HLA-A*02:06 [3] (setting [7]), 1.89 µM.

KVEKYLPEVI: the 50% inhibitory concentration (IC50) with HLA-A*02:01 [1] was 8.62 µM; with HLA-A*02:02 (setting [7]), 12.1 µM; with HLA-A*02:03 (setting [7]), 12.4 µM; in the assay with HLA-A*68:02 [2] (setting [7]), at least 70 µM; with HLA-A*02:06 [3] (setting [7]), 0.734 µM.

For KVIKLVKSLV, the concentration for half-maximal inhibition (IC50) with HLA-A*02:01 [1] came out at 24.9 µM; in the assay with HLA-A*02:02 (setting [7]), 14.3 µM; in the assay with HLA-A*02:03 (setting [7]), 13.4 µM; with HLA-A*68:02 [2] (setting [7]) it was 16.2 µM; in the assay with HLA-A*02:06 [3] (setting [7]), 2.15 µM.

On to LALWDSNFFT, for which the IC50 with HLA-A*02:02 (setting [7]) was 11 µM; with HLA-A*02:03 (setting [7]), 19.9 µM; with HLA-A*68:02 [2] (setting [7]) it was at least 70 µM; with HLA-A*02:01 [6] (setting [7]) it was 0.815 µM; with HLA-A*02:06 [3] (setting [7]) it was 1.25 µM.

Regarding LLLGLLLLCV, the half-inhibitory concentration (IC50) in the assay with HLA-A*02:02 (setting [8]) was determined as 16.9 µM; in the assay with HLA-A*02:03 (setting [8]) it was 10.3 µM; with HLA-A*68:02 [2] (setting [8]), 57.9 µM; with HLA-A*02:01 [6] (setting [8]) it was 2.18 µM; with HLA-A*02:06 [3] (setting [8]), 5 µM.

Take NVTGFMEEEI: the IC50 with HLA-A*02:02 (setting [7]) is 10.3 µM; in the assay with HLA-A*02:03 (setting [7]), 5.14 µM; in the assay with HLA-A*02:06 [4] it was 17.6 µM; with HLA-A*02:01 [6] (setting [7]), 4.4 µM; in the assay with HLA-A*68:02 [5], 1.48 µM.

In the case of PIPYSRVNHA, the IC50 with HLA-A*02:01 [1] amounted to 54 µM; with HLA-A*02:02 (setting [7]) it was 11.7 µM; with HLA-A*02:03 (setting [7]), 15.3 µM; in the assay with HLA-A*68:02 [2] (setting [7]), 48.3 µM; in the assay with HLA-A*02:06 [3] (setting [7]), 1.45 µM.

For the sequence PVVYHDDDNT, the IC50 is 11.7 µM with HLA-A*02:01 [1]; 9.14 µM with HLA-A*02:02 (setting [7]); 26.8 µM in the assay with HLA-A*02:03 (setting [7]); 11.4 µM with HLA-A*68:02 [2] (setting [7]); 1.35 µM with HLA-A*02:06 [3] (setting [7]).

Turning to RQLTSNVDV, the 50% inhibitory concentration (IC50) with HLA-A*02:01 [1] came to 8.98 µM; with HLA-A*02:02 (setting [7]), 50.8 µM; with HLA-A*02:03 (setting [7]), 9.76 µM; in the assay with HLA-A*68:02 [2] (setting [7]), 18.8 µM; with HLA-A*02:06 [3] (setting [7]) it was 0.17 µM.

As to RQQLEDIFM, the IC50 with HLA-A*02:01 [1] is 10 µM; in the assay with HLA-A*02:02 (setting [7]), 5.73 µM; in the assay with HLA-A*02:03 (setting [7]), 26.9 µM; with HLA-A*68:02 [2] (setting [7]), at least 70 µM; with HLA-A*02:06 [3] (setting [7]), 0.944 µM.

For the sequence TTNNLLEQLI, the IC50 with HLA-A*02:02 (setting [7]) was 8.88 µM; with HLA-A*02:03 (setting [7]), 21 µM; with HLA-A*02:06 [4], 13.1 µM; with HLA-A*02:01 [6] (setting [7]), 4.93 µM; with HLA-A*68:02 [5], 0.073 µM.

As to VILPDKIDGL, the IC50 with HLA-A*02:02 (setting [7]) was 8.09 µM; in the assay with HLA-A*02:03 (setting [7]), 10.8 µM; with HLA-A*68:02 [2] (setting [7]), at least 70 µM; in the assay with HLA-A*02:01 [6] (setting [7]), 1.79 µM; in the assay with HLA-A*02:06 [3] (setting [7]), 0.24 µM.

As for VIVPDIKLDA, the IC50 in the assay with HLA-A*02:01 [1] was 22.6 µM; in the assay with HLA-A*02:02 (setting [7]) it was 33.5 µM; with HLA-A*02:03 (setting [7]), 21.4 µM; with HLA-A*68:02 [2] (setting [7]) it was at least 70 µM; with HLA-A*02:06 [3] (setting [7]), 0.883 µM.

Regarding VTPEYIKDL, the IC50 was 9.23 µM with HLA-A*02:01 [1]; 10.4 µM with HLA-A*02:02 (setting [7]); at least 70 µM with HLA-A*02:03 (setting [7]); at least 70 µM with HLA-A*68:02 [2] (setting [7]); 1.76 µM in the assay with HLA-A*02:06 [3] (setting [7]).

YVLFVKKML: the concentration for half-maximal inhibition (IC50) in the assay with HLA-A*02:01 [1] is 5.15 µM; with HLA-A*02:02 (setting [7]) it was 31.1 µM; with HLA-A*02:03 (setting [7]), 12 µM; with HLA-A*68:02 [2] (setting [7]), 11.4 µM; with HLA-A*02:06 [3] (setting [7]) it was 2.54 µM.

The values are drawn from the Immune Epitope Database (IEDB).
